Test results reported in article PMC2782360.

What was measured:
[1] = target: native 67 kDa laminin receptor (67LR) shed from T47D cells (human (endogenous in T47D)) (UniProt P08865); test: SPR
[2] = target: recombinant human 37 kDa laminin receptor precursor (37LRP) (human) (UniProt P08865); test: SPR

Kd [1]: 320 nM | Kd [2]: 410 nM
Substance: human laminin (complex)
